In paper PMC6393287, “The RRM of the kRNA-editing protein TbRGG2 uses multiple surfaces to bind and remodel RNA”:

Experiments:
[1] = target: TbRGG2 RRM-Cterm (residues 203–320) (T. brucei); assay: SEC; RRM-Cterm at 16 mg/ml mixed with equimolar U20 RNA, Superdex 75; 20 mM Tris-HCl pH 7.5, 150 mM NaCl, 5% glycerol, 1 mM DTT
[2] = target: TbRGG2 RRM-Cterm (residues 203–320) (T. brucei); assay: SEC; protein alone at 10 mg/ml on Superdex 75; 20 mM Tris-HCl pH 7.5, 150 mM NaCl, 5% glycerol, 1 mM DTT; elution volume compared with protein standards
TbRGG2 RRM-Cterm W215A = TbRGG2 RRM-Cterm W215A (Trypanosoma brucei, UniProt Q389P7 193-310, W205A); assay: FP; FP: 20 mM Tris-HCl pH 7.5, 5% glycerol, 50 mM NaCl (a further '20 mM' printed without component), 1 nM labelled RNA, 25 C; conditions: protein: recombinant; tags: His6 cleaved (thrombin); chain copies: 2; label: 5'-fluorescein (FP)
TbRGG2 RRM W215A = TbRGG2 RRM W215A (Trypanosoma brucei, UniProt Q389P7 193-259, W205A); assay: as above; conditions: protein: recombinant; tags: His6 cleaved (thrombin); label: 5'-fluorescein (FP)

| Molecule | stoichiometry N [1] | stoichiometry N [2] | binding result (TbRGG2 RRM-Cterm W215A) | binding result (TbRGG2 RRM W215A) |
| --- | --- | --- | --- | --- |
| TbRGG2 RRM-Cterm (residues 203–320) (domain or fragment) | 2 | 2 |  |  |
| UUUUUUUUUUUUUUUUUUUU (ssRNA) [U20] |  |  | no binding | no binding |
